We go through three molecules from article PMC3115401 (Traffic (Copenhagen, Denmark), 2011).

Where a chain is given by its changes, count along the chain named. In names and notes the source's numbering stands.

One assay addresses T1, GST-Kap60 (S. cerevisiae, UniProt Q02821 1-542).
T1 sequence (looked up): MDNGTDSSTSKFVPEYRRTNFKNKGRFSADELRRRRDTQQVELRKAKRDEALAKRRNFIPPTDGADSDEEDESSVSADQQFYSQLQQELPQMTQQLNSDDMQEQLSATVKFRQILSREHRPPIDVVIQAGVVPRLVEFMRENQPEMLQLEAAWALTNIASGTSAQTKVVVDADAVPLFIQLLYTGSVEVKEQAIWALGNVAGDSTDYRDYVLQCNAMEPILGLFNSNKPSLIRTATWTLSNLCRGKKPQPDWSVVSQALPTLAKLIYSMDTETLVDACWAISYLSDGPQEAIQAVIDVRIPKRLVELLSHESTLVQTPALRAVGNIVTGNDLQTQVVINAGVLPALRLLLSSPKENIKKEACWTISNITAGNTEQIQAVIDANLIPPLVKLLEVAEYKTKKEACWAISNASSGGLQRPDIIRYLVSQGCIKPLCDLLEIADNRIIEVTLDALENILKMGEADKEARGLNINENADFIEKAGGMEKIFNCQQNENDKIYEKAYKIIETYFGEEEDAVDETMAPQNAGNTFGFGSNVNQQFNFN
Description: pull-down.

The target in the next assay is T2, GST-Rtt109 (S. cerevisiae, UniProt Q07794 1-436).
T2 sequence (looked up): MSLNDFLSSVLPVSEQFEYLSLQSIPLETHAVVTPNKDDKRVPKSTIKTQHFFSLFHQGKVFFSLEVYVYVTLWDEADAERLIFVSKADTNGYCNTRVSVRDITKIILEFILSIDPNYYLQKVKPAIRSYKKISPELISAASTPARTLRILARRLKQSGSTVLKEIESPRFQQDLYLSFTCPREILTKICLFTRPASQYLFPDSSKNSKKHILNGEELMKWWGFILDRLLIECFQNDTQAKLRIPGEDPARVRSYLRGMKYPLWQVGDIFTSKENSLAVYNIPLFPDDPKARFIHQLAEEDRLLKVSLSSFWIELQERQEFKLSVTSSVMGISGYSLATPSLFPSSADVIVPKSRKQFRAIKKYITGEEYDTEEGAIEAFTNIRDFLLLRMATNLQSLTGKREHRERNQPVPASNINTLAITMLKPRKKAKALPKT
Nature of the assay: pull-down.

B1: MBP-Vps75 wild type (natural protein, S. cerevisiae, UniProt P53853 1-264, looked up)
chain: MMSDQENENEHAKAFLGLAKCEEEVDAIEREVELYRLNKMKPVYEKRDAYIDEIAEFWKIVLSQHVSFANYIRASDFKYIDTIDKIKVDWLALESEMYDTRDFSITFHFHGIEGDFKEQQVTKVFQIKKGKDDQEDGILTSEPVPIEWPQSYDSINPDLIKDKRSPEGKKKYRQGMKTIFGWFRWTGLKPGKEFPHGDSLASLFSEEIYPFCVKYYAEAQRDLEDEEGESGLSADGDSEDDDGSLGEVDLPLSDEEPSSKKRKV
Consider B1, for which the binding result with GST-Kap60 and with GST-Rtt109 was “binds” throughout.

B2: MBP-Vps75(K260G, K261G) (natural protein, S. cerevisiae, UniProt P53853 1-264, looked up)
chain: B1 chain with K260G, K261G
With B2, the binding result with GST-Rtt109 was “binds”.

B3: MBP-Vps75(1–222) (domain or fragment, S. cerevisiae, UniProt P53853 1-222, looked up)
chain: MMSDQENENEHAKAFLGLAKCEEEVDAIEREVELYRLNKMKPVYEKRDAYIDEIAEFWKIVLSQHVSFANYIRASDFKYIDTIDKIKVDWLALESEMYDTRDFSITFHFHGIEGDFKEQQVTKVFQIKKGKDDQEDGILTSEPVPIEWPQSYDSINPDLIKDKRSPEGKKKYRQGMKTIFGWFRWTGLKPGKEFPHGDSLASLFSEEIYPFCVKYYAEAQRD
For B3, the binding result in the assay with GST-Rtt109 is recorded as “binds”.
